Source: article PMC3791854

Molecular target: HIV Env on CEM-Env cells (HIV, strain not stated)

## CD4-CD28-CD3ζ chimeric receptor (from UniProt P01730 26-396)
  IFNγ in the culture of CEM-Env + CD4-dTc: 838 pg/mL
  IL2 in the culture of CEM-Env + CD4-dTc: 318 pg/mL
  TNFα in the culture of CEM-Env + CD4-dTc: 249 pg/mL
